According to article PMC11806408 (2025):

Molecular target: fibrillin‐1 fragment start‐EGF4 (UniProt P35555 45-287)
Assay: SPR

Sequence of fibrillin‐1 fragment start‐EGF4 (P35555 45-287): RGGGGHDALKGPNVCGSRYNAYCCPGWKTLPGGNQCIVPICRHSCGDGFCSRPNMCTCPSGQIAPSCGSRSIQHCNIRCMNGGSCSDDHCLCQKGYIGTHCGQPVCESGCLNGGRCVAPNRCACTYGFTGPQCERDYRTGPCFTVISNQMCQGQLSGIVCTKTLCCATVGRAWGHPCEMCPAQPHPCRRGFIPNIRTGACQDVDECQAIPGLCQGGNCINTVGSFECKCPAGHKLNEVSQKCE

Kd: 14.4 nM
B1: processed BMP‐10 CPLX (tag‐free, HEK293) (complex)
chain 1: SPIMNLEQSPLEEDMSLFGDVFSEQDGVDFNTLLQSMKDEFLKTLNLSDIPTQDSAKVDPPEYMLELYNKFATDRTSMPSANIIRSFKNEDLFSQPVSFNGLRKYPLLFNVSIPHHEEVIMAELRLYTLVQRDRMIYDGVDRKITIFEVLESKGDNEGERNMLVLVSGEIYGTNSEWETFDVTDAIRRWQKSGSSTHQLEVHIESKHDEAEDASSGRLEIDTSAQNKHNPLLIVFSDDQSSDKERKEELNEMISHEQLPELDNLGLDSFSSGPGEEALLQMRSNIIYDSTARIRR
chain 2: NAKGNYCKRTPLYIDFKEIGWDSWIIAPPGYEAYECRGVCNYPLAEHLTPTKHAIIQALVHLKNSQKASKACCVPTKLEPISILYLDKGVVTYKFKYEGMAVSECGCR
modifications: N‐glycosylation
